Experimental data from patent US20130330346A1 (Novartis, published 2013).
Where two headings read alike, the source gives them in different places. Ends that are not written are not given here.

How the values were obtained:
[1] = biological target: T1, Human 1to19 peptide (human); experiment: ELISA, periplasmic extract on biotinylated peptide
T1 construct: First 19 N-terminal amino acids of human CXCR2, captured on neutravidin; also called human CXCR2 1 to19 peptide; 1-19 Nter peptide
T1 peptide: MEDFNMESDSFEDFWKGED-biotin
Description: In another setup, periplasmic extracts were analyzed for binding to human 1 to 19 peptide by ELISA. MaxiSorb plates (Nunc, 430341) were coated for two hours with neutravidin followed by one hour blocking (PBS, 1% casein). Then 100 nM biotinylated human 1 to 19 peptide was added to these plates for one hour (PBS, 0.1% casein, 0.05% tween20) followed by one hour incubation with 10-fold dilutions of periplasmic extracts. Unbound periplasmic extracts were washed away (PBS supplemented with 0.05% tween20) and bound Nanobodies were detected using mouse anti-myc (Roche, 11667149001) followed by rabbit anti-mouse-HRP conjugate (Dakocytomation, P0260). Table 8 summarizes the ratios of the binding signals of anti-CXCR2Nanobodies over an irrelevant control Nanobody.

[2] = biological target: T2, Human CXCR2 (human, UniProt P25025 1-360); experiment: FACS competition vs 3 nM FMAT-Blue Gro-α
T2 construct: Some cell lines carry an N-terminal 3xHA tag; also called hCXCR2; huCXCR2
T2 sequence: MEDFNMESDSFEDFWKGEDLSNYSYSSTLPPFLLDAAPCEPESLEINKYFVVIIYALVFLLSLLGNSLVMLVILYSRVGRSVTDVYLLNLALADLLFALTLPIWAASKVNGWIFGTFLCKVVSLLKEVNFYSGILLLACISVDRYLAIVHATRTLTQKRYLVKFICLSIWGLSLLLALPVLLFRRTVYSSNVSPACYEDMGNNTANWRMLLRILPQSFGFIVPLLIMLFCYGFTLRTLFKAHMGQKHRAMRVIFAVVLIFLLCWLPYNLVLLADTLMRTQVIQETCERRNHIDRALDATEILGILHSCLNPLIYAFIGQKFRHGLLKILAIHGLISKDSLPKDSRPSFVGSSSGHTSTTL
Description: Purified monovalent anti-CXCR2Nanobodies were titrated against 3 nM FMAT-Blue-labeled Gro-α in the FACS ligand competition assay on human and cynomolgus CXCR2 (Table 10). On human CXCR2, blocking potencies range between double digit nM and sub-nM whereas on cynomolgus CXCR2, they range between single and double digit nM.

[3] = biological target: T2, Human CXCR2; experiment: FACS, periplasmic extract vs FMAT Blue Gro-α
Description: Periplasmic extracts (as described above) were analyzed on FACS for competition with Gro-α in binding to human CXCR2. 2×10⁵ cells were incubated with a ½ dilution of periplasmic extracts in FACS buffer (PBS+10% fetal bovine serum (Sigma, F7524)) for 30 minutes at 4° C. Then, an equal volume of 6 nM of FMAT Blue-labeled human Gro-α in FACS buffer was added and incubation was continued for another 30 minutes at 4° C. in the dark. Cells were then washed three times in FACS buffer and finally resuspended in FACS buffer. Dead cells were stained with propidium iodide (Sigma, P4170). Samples were then analyzed on a FACSarray (BD Biosciences).

[4] = biological target: T2, Human CXCR2; experiment: cell-based or functional assay
[5] = biological target: T2, Human CXCR2; experiment: cell-based or functional assay; remark: listed apart in the source
[6] = biological target: T3, Cynomolgus CXCR2 (cynomolgus, UniProt Q28519 3-353 (rhesus entry)); experiment: cell-based or functional assay
T3 chain: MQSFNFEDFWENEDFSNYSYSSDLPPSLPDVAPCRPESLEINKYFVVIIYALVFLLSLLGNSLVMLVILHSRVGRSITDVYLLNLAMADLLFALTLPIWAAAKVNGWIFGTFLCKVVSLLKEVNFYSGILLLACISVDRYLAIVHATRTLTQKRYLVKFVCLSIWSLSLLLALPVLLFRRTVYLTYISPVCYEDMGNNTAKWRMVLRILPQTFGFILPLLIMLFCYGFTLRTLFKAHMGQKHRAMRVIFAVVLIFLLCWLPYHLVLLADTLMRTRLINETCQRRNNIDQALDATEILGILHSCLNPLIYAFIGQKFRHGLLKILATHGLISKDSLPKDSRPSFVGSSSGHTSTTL

[7] = biological target: T2, Human CXCR2; experiment: cell-based or functional assay; remark: listed apart in the source
[8] = biological target: T3, Cynomolgus CXCR2; experiment: cell-based or functional assay
[9] = biological target: T2, Human CXCR2; experiment: cell-based or functional assay; remark: listed apart in the source
[10] = biological target: T2, Human CXCR2; experiment: FACS competition vs 3 nM FMAT-Blue Gro-α; remark: listed apart in the source
Description: (§1) Multivalent anti-CXCR2Nanobodies were titrated against 3 nM FMAT-Blue-labeled Gro-α in the FACS ligand competition assay on human and cynomolgus CXCR2 (Table 14). On human CXCR2, blocking potencies range between double digit nM and sub-nM whereas on cynomolgus CXCR2, they range between single and double digit nM.

[11] = biological target: T3, Cynomolgus CXCR2; experiment: FACS competition vs 3 nM FMAT-Blue Gro-α
Description: as §1

B1: 137B7 (VHH)
VHH: EVQLVESGGGLVQPGGSVRLSCVASGIIFRLSALGWTRQGPGKAREWVAGINSDGTTNYADPVKGRFTISRDNAKNTIYLHMDMLKPEDTAVYYCASGKYRGQGTQVTVSS
notes: Tested as periplasmic extract (pAX50) and as purified His6-tagged protein (pAX100); also called 137B07; not shown: C-terminal c-myc tag and His6 tag coded by the vector
ratio of binding signal relative to blank control [1]: 1 ratio
% inhibition of max [2]: 93.5%
IC50 [2]: 1.11 nM
FACS Gro-α competition (% inhibition) [3]: 90.3%
FLIPR % inhibition max [4]: 100%
FLIPR IC50 (GRO-α induced calcium release) [4]: 6.71 nM

B2: 139A8 (VHH)
VHH: EVQLVESGGGLVQAGGSLRLSCAASGRSFSRSAMGWLRQAPGKEREFVAGISWGGDNSYYADSVKGRFTISRDNAKNTVSLQMNSLKPQDTAVYYCAARYRGGAAVAGWEYWGQGTQVTVSS
notes: Tested as periplasmic extract only; also called 139A08; not shown: C-terminal c-myc tag and His6 tag coded by the vector
ratio of binding signal relative to blank control [1]: 1 ratio
FACS Gro-α competition (% inhibition) [3]: 78.5%

B3: 143B3 (VHH)
VHH: EVQLVESGGGLVQPGGSLRLSCAASGFTFSTYWMYWVRQAPGKGLDWVSAINAGGDSTYYADPVKGRFTISRDNNKNTLYLQMNSLKPEDTALYYCATVRGTARDLDYWGQGTQVTVSS
notes: Tested as periplasmic extract only; also called 143B03; not shown: C-terminal c-myc tag and His6 tag coded by the vector
FACS Gro-α competition (% inhibition) [3]: 70.8%

B4: 139D5 (VHH)
VHH: EVKLVESGGGLVQAGGSLRLSCALSGRIGSINAMGWYRQVSGQQRELVAVSRSGGSTDIADSVKGRFTISRDNGKNTVYLQMDSLKPEDTAVYYCYAHTSSYSNWRVYNNDYWGQGTQVTVSS
notes: Tested as periplasmic extract only; also called 139D05; not shown: C-terminal c-myc tag and His6 tag coded by the vector
ratio of binding signal relative to blank control [1]: 0.8 ratio
FACS Gro-α competition (% inhibition) [3]: 56.8%

B5: 137A8 (VHH)
VHH: EVQLVESGGGLVQPGGSLRLSCAASGSTLAYYTVGWFRRAPGKEREGISCISSSDGSTYYADSVKGRFTISRDNAKNTVYLQMNSLKPEDTAVYYCAADRRTDCKKGRVGSGSWGQGTQVTVSS
notes: Tested as periplasmic extract only; also called 137A08; not shown: C-terminal c-myc tag and His6 tag coded by the vector
ratio of binding signal relative to blank control [1]: 1.2 ratio
FACS Gro-α competition (% inhibition) [3]: 55.8%

B6: 143A5 (VHH)
VHH: KVQLVESGGGLVQAGGSLRLSCAASGRAFNYYVMAWFRQAQGKEREFVAAISTRGSMTKYSDSVQGRFTISRDNAKNTVYLHMNSLKPEDTAVYYCAADPRGSSWSFSSGGYDYWGQGTQVTVSS
notes: Tested as periplasmic extract only; also called 143A05; not shown: C-terminal c-myc tag and His6 tag coded by the vector
FACS Gro-α competition (% inhibition) [3]: 72.6%

B7: CXCR20028 (other)
chain: EVQLVESGGGLVQPGGSLRLSCVASGSIVRINTMGWYRQTPGKQRELVADITSGGNINYIDAVKGRFTISRDNTKNTVYLQMNSLKPEDTAVYYCNAEIVVLVGVWTQRARTGNYWGQGTQVTVSSGGGGSGGGGSGGGGSGGGGSGGGGSGGGGSGGGGSEVQLVESGGGLVQAGGSLTLSCAVSGSTFRINTMGWYRRAPGKQRELVAARDRGGYINYVDSVKGRFTVSRDNAKPTMYLQMNSLKPEDTAVYYCHAGTQDRTGRNFDRWGQGTQVTVSS
notes: Biparatopic: two VHH joined by a GlySer linker; also called 97A9-35GS-54B12; 97A9-54B12; not shown: C-terminal c-myc tag and His6 tag coded by pAX100
Human WBSC IC50 (rhGROα) [5]: 0.43 nM
Cynomologus WBSC IC50 (rhGROα) [6]: 1.72 nM
FLIPR % inhibition of max [7]: 100%
FLIPR IC50 (GRO-α induced calcium release) [7]: 21.9 nM
FLIPR % inhibition of max [8]: 100%
FLIPR IC50 (GRO-α induced calcium release) [8]: 17 nM
[35S]GTPγS % inhibition of max (GRO-α) [9]: 100%
[35S]GTPγS IC50 (GRO-α) [9]: 1.38 nM
% inhibition of max [10]: 98.5%
IC50 [10]: 1.63 nM
% inhibition of max [11]: 96%
IC50 [11]: 3.8 nM

B8: 145C9 (VHH)
VHH: EVQLVESGGGLVQAGGSLRLSCAASGFTFDDYAIGWFRQAPGKERERVSCISGSDGSTYYADSVKGRFTISSDNAKNTVYLQMNNLKPEDTAVYYCAAYWGLTLRLWMPPHRYDYWGQGTQVTVSS
notes: Tested as periplasmic extract only; also called 145C09; not shown: C-terminal c-myc tag and His6 tag coded by the vector
FACS Gro-α competition (% inhibition) [3]: 53.5%

B9: 139H2 (VHH)
VHH: EVQLVESGGGLVQAGGSLRLSCAASGRTFSNYAMGWFRQATGKEREFVAAINKSGGNTHYAGSVKGRFTISRDNAKNTVYLQMNSLKPRDTAVYYCAASRTNPKPDYWGQGTQVTVSS
notes: Tested as periplasmic extract only; also called 139H02; not shown: C-terminal c-myc tag and His6 tag coded by the vector
ratio of binding signal relative to blank control [1]: 1.7 ratio
FACS Gro-α competition (% inhibition) [3]: 50.5%

B10: 126B11 (VHH)
VHH: EVQLVESGGGLVQAGGSLTLSCAVSGSSFRINTMGWYRRAPGKQRELVAARDRGGYINYVDSVKGRFTVSRDNAKPTMYLQMNSLKPEDTAVYYCHAGTQDRTGRNFDHWGQGTQVTVSS
notes: Tested as periplasmic extract only; not shown: C-terminal c-myc tag and His6 tag coded by the vector
FACS Gro-α competition (% inhibition) [3]: 36.9%

B11: 159B10 (VHH)
VHH: EVQLVESGGGLVQPGGSLRLSCAASGRTFSSLSMGWFRQAPGKERAFVAALTRNGGYRYYADSVKGRFTISRDVAKKTLYLQMNSLKPEDTAVYYCAADSLSGSDYLGTNLDYWGQGTQVTVSS
notes: as for B10
ratio of binding signal relative to blank control [1]: 0.8 ratio
FACS Gro-α competition (% inhibition) [3]: 75.8%

B12: CXCR20030 (other)
chain: EVQLVESGGGLVQAGGSLRLSCAASGRTFSDYAMGWFRQAPGKEREFVAAITWNGGRVFYTASVKGRFTISRDNAKNTMYLQMNSLKPEDTAVYYCAADKDRRTDYLGHPVAYWGQGTQVTVSSGGGGSGGGGSGGGGSGGGGSGGGGSGGGGSGGGGSEVQLVESGGGLVQAGGSLTLSCAVSGSTFRINTMGWYRRAPGKQRELVAARDRGGYINYVDSVKGRFTVSRDNAKPTMYLQMNSLKPEDTAVYYCHAGTQDRTGRNFDRWGQGTQVTVSS
notes: Biparatopic: two VHH joined by a GlySer linker; also called 163D2-35GS-54B12; 163D2-54B12; not shown: C-terminal c-myc tag and His6 tag coded by pAX100
Human WBSC IC50 (rhGROα) [5]: 0.215 nM
Cynomologus WBSC IC50 (rhGROα) [6]: 0.56 nM
FLIPR % inhibition of max [7]: 100%
FLIPR IC50 (GRO-α induced calcium release) [7]: 11.8 nM
FLIPR % inhibition of max [8]: 100%
FLIPR IC50 (GRO-α induced calcium release) [8]: 6.36 nM
[35S]GTPγS % inhibition of max (ENA-78) [9]: 100%
[35S]GTPγS % inhibition of max (GRO-α) [9]: 100%
[35S]GTPγS % inhibition of max (IL-8) [9]: 100%
[35S]GTPγS IC50 (ENA-78) [9]: 1.3 nM
[35S]GTPγS IC50 (GRO-α) [9]: 1.02 nM
[35S]GTPγS IC50 (IL-8) [9]: 1.09 nM
% inhibition of max [10]: 99.5%
IC50 [10]: 0.786 nM
% inhibition of max [11]: 98.5%
IC50 [11]: 1.74 nM

B13: 145D3 (VHH)
VHH: EVQLVESGGGLVQAGGSLSLSCAASGLIFRLSGMAWYRQAPGRQREWVAVLTKDGTLHYADPVKGRFTISRNNAENTWYLQMNSLKPEDTAIYYCNTGRYWGQGTQVTVSS
notes: Tested as periplasmic extract only; also called 145D03; not shown: C-terminal c-myc tag and His6 tag coded by the vector
FACS Gro-α competition (% inhibition) [3]: 77.9%
